From the supplement of paper PMC10567573

B1: PLAGL1 (parent)
chain: LELGSTEVLLDHLKAHAEEKPPSG
B2: LOXL2 (parent)
chain: HISSCKLGPQVSLDPMKNVTCENG

Variants of: B1
Experiment: protein stability index of a GFP-peptide fusion (GPS, HEK-293T) (PSI 1-6); higher = more stable
Settings: c terminus: a fixed tail appended
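Note: lentivirally expressed fusions sorted by FACS into six bins by GFP to DsRed ratio, PSI derived from sequencing read proportions per bin multiplied by bin number.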

Variant | protein stability index
K14M | 3.6
K14N | 5.04
K14P | 5.32
K14Q | 4.59
K14R | 3.5
K14S | 5.04
K14T | 5.1
K14V | 4.63
K14W | 4.1
K14Y | 4.14
A15C | 4.04
A15D | 4.8
A15E | 5.05
A15F | 4.18
A15G | 4.29
A15H | 4.37
A15I | 4.24
A15K | 3.87
A15L | 4.83
A15M | 4.48
A15N | 4.73
A15P | 5.41
A15Q | 4.63
A15R | 3.89
A15S | 4.44

Variant | protein stability index
A15T | 5.14
A15V | 4.72
A15W | 3.54
A15Y | 4.04
H16A | 4.24
H16C | 4.2
H16D | 4.25
H16E | 4.6
H16F | 3.42
H16G | 3.88
H16I | 3.93
H16K | 5.08
H16L | 4.08
H16M | 3.29
H16N | 5.11
H16P | 5.07
H16Q | 4.53
H16R | 4.28
H16S | 4.58
H16T | 4.29
H16V | 4.05
H16W | 3.02
H16Y | 3.33
A17C | 3.74
A17D | 4.66

Variant | protein stability index
A17E | 4.67
A17F | 2.97
A17G | 4.35
A17H | 4.13
A17I | 3.37
A17K | 4.11
A17L | 3.21
A17M | 2.74
A17N | 4.7
A17P | 4.66
A17Q | 4.65
A17R | 4.39
A17S | 4.01
A17T | 4.16
A17V | 3.88
A17W | 3.35
A17Y | 3.4
E18A | 3.45
E18C | 3.39
E18D | 4.55
E18F | 2.08
E18G | 2.66
E18H | 3.27
E18I | 2.62
E18K | 2.7

Variant | protein stability index
E18L | 2.76
E18M | 2.61
E18N | 3.53
E18P | 3.28
E18Q | 3.94
E18R | 2.15
E18S | 3.87
E18T | 3.59
E18V | 2.71
E18W | 2.07
E18Y | 3.25
E19A | 3.73
E19C | 3.12
E19D | 4.48
E19F | 2.33
E19G | 2.45
E19H | 3.61
E19I | 3.14
E19K | 3.55
E19L | 2.64
E19M | 3.41
E19N | 4.03
E19P | 4.28
E19Q | 3.89
E19R | 3.58

Variant | protein stability index
E19S | 3.65
E19T | 3.55
E19V | 3.27
E19W | 3.23
E19Y | 3.32
K20A | 4.56
K20C | 4
K20D | 4.64
K20E | 5.18
K20F | 2.9
K20G | 4.22
K20H | 3.59
K20I | 3.71
K20L | 3.9
K20M | 4.01
K20N | 4.58
K20P | 4.88
K20Q | 3.56
K20R | 4.26
K20S | 4.21
K20T | 4.86
K20V | 4.41
K20W | 4.06
K20Y | 3.6
P21A | 4.8

Variant | protein stability index
P21C | 3.55
P21D | 4.92
P21E | 5.38
P21F | 3.72
P21G | 4.45
P21H | 4.57
P21I | 4.22
P21K | 5.04
P21L | 3.6
P21M | 4.4
P21N | 4.85
P21Q | 4.84
P21R | 4.47
P21S | 4.53
P21T | 4.56
P21V | 4.41
P21W | 3.53
P21Y | 3.39
P22A | 4.49
P22C | 4.58
P22D | 4.88
P22E | 5.08
P22F | 3.35
P22G | 4.4
P22H | 4.03

Variant | protein stability index
P22I | 4.06
P22K | 4.25
P22L | 3.9
P22M | 3.85
P22N | 4.95
P22Q | 4.85
P22R | 4.1
P22S | 4.79
P22T | 4.88
P22V | 3.81
P22W | 3.38
P22Y | 3.9
S23A | 3.76
S23C | 4.35
S23D | 5.1
S23E | 4.89
S23F | 3.72
S23G | 4.43
S23H | 4.17
S23I | 4.1
S23K | 4.28
S23L | 4.22
S23M | 4.15
S23N | 4.47
S23P | 4.5

Variant | protein stability index
S23Q | 4.71
S23R | 4.4
S23T | 4.17
S23V | 4.34
S23W | 3.22
S23Y | 3.79
G24A | 4.66
G24C | 3.97
G24D | 4.91
G24E | 4.68
G24F | 3.21
G24H | 4.47
G24I | 4.07
G24K | 4.34
G24L | 3.51
G24M | 3.61
G24N | 4.54
G24P | 4.9
G24Q | 4.63
G24R | 4.21
G24S | 4.46
G24T | 4.18
G24V | 3.88
G24W | 3.23
G24Y | 3.7

Variants of: B2
Experiment: as above
Settings: c terminus: a fixed tail appended

Variant | protein stability index
M16N | 4.61
H1T | 4.07
V11Q | 4.4
C21V | 4.1
V11H | 4.41
D14Y | 2.8
K17N | 4.3
S12V | 3.92
K6V | 3.95
C21F | 3.65
G8Y | 3.4
P9T | 3.95
Q10V | 3.56
N23W | 2.21
P15K | 3.93
K17E | 4.28
K17D | 4.66
P15Q | 4.03
M16V | 4.34
T20R | 3.88
L13N | 4.42
S12P | 4.18
N23H | 3.61

Variant | protein stability index
I2W | 3.31
C5F | 3.83
E22S | 3.5
V11W | 3.44
P15E | 4.64
S3I | 3.39
C5I | 3.87
K17Q | 3.81
V11A | 4.03
P9F | 2.65
K6Q | 4.04
S4F | 3.34
I2D | 4.58
K6T | 4.36
L13M | 4.24
S12W | 2.47
N23K | 3.98
L7W | 2.28
E22F | 2.46
S3D | 4.39
S4V | 3.91
C5L | 4.32
Q10M | 3.37

Variant | protein stability index
N18W | 2.88
K6F | 2.98
I2E | 4.48
Q10H | 3.52
M16A | 4.15
P15H | 4.02
V11M | 4.15
I2G | 4.53
E22N | 3.35
K6W | 2.64
C5S | 4.66
S12I | 3.68
K17G | 3.45
L7E | 4.79
D14S | 3.65
L7Y | 3.74
L13P | 4.22
I2N | 3.76
G24M | 3.52
P15F | 3.04
C21D | 4.79
S4D | 3.61
V19Y | 3.76

Variant | protein stability index
K6D | 4.9
K17A | 3.98
D14L | 3.22
P15C | 3.43
N23S | 3.91
K6G | 3.97
H1Q | 3.95
H1L | 3.29
S4K | 3.96
D14K | 3.5
G24N | 4.12
L7V | 4.19
P15L | 3.62
V11K | 3.48
H1M | 3.95
C21G | 4.05
E22K | 3.89
C21E | 4.92
C5K | 4.53
V19P | 4.2
Q10W | 2.08
N23L | 3.1
G8A | 3.77

Variant | protein stability index
H1W | 3.42
D14C | 2.95
I2K | 3.4
P9D | 4.05
N18M | 3.42
G24K | 3.82
S3G | 4.2
G24L | 3.45
S12K | 3.9
H1F | 2.01
H1V | 3.72
S12R | 3.48
E22W | 2.09
E22M | 2.9
G8H | 3.63
H1R | 3.95
K6M | 4.15
N18C | 3.11
C21S | 4.63
N18Y | 3.08
G8N | 4.07
K17V | 3.67
S12G | 3.93

Variant | protein stability index
E22D | 3.82
I2A | 4.35
M16I | 3.68
C5D | 4.77
V11C | 4.27
D14V | 3.69
S12D | 3.72
I2S | 4.34
L13A | 4.43
V19N | 4.57
L13T | 4.61
M16S | 4.23
V19L | 3.77
G8E | 4.53
K6N | 4.32
S3V | 3.12
K6S | 4.34
K6E | 4.35
G24T | 4.05
